Experimental data published in the RNAGym collection of RNA variant scans (doi:10.7554/elife.80360).

B1: CPEB3 Ribozyme (parent)
chain: GGGGGCCACAGCAGAAGCGUUCACGUCGCGGCCCCUGUCAGAUUCUGGUGAAUCUGCGAAUUCUGCUGU

Variants of: B1
Test: self-cleavage, relative activity (ratio to wild type); higher = more cleavage; co-transcriptional

Compared with C6A U38C, C6A U38G is lower in self-cleavage: 0.35 for the first, 0.117 for the second.

Going from C6A U44G to C6A U44C, the self-cleavage rises from 0.416 to 0.455.

Going from C6A U44A to C6A G37A, the self-cleavage falls from 0.373 to 0.149.

Going from C6A G37C to C6A G37U, the self-cleavage rises from 0.122 to 0.142.

Compared with G5U U64G, G5U U64A is lower in self-cleavage: 0.194 for the first, 0.109 for the second.

Going from G5U U64C to C6A A10C, the self-cleavage rises from 0.195 to 0.67.

First: C6A A10G
Second: C6A A10U
The self-cleavage of the first is lower: 0.798 for the first, 0.903 for the second.

First: G5U G41U
Second: G5U G41C
The self-cleavage of the first is lower: 0.0869 for the first, 0.113 for the second.

Compared with G5U U55G, G5U U55A is higher in self-cleavage: 0.0798 for the first, 0.0876 for the second.

First: G5C U26G
Second: G5C U26A
The self-cleavage of the first is higher: 0.228 for the first, 0.156 for the second.

Going from G5U G50U to G5U G50C, the self-cleavage rises from 0.313 to 0.341.

First: G5U G25A
Second: G5U G25U
The self-cleavage of the first is higher: 0.0881 for the first, 0.0766 for the second.

Going from G5U G25C to C6A U62C, the self-cleavage rises from 0.0917 to 0.338.

First: C6A U20C
Second: C6A U20A
The self-cleavage of the first is higher: 0.204 for the first, 0.0587 for the second.

First: C6A A13G
Second: G5U U61A
The self-cleavage of the first is higher: 0.506 for the first, 0.108 for the second.

Compared with G5U U61C, G5C G11U is higher in self-cleavage: 0.0722 for the first, 0.108 for the second.

First: C6A C9G
Second: C6A C9A
The self-cleavage of the first is higher: 1.02 for the first, 0.961 for the second.

Going from G5U C6U to G5U A42C, the self-cleavage falls from 0.111 to 0.0793.

Compared with G5U A42U, G5U A42G is higher in self-cleavage: 0.118 for the first, 0.343 for the second.

Going from C6A A42G to C6A A42C, the self-cleavage falls from 0.609 to 0.221.

Going from C6A U46A to C6A U46G, the self-cleavage falls from 0.674 to 0.607.

First: C6A U46C
Second: C6A U61G
The self-cleavage of the first is higher: 0.657 for the first, 0.242 for the second.

Compared with C6A U61C, G5C U21G is lower in self-cleavage: 0.15 for the first, 0.114 for the second.

Going from G5C U21C to G5C U21A, the self-cleavage falls from 0.149 to 0.134.

First: G5C U36A
Second: G5C U36C
The self-cleavage of the first is lower: 0.0886 for the first, 0.244 for the second.

Compared with G5C U36G, G5C G58U is lower in self-cleavage: 0.458 for the first, 0.207 for the second.

Compared with G5U G68C, G5U G68U is higher in self-cleavage: 0.716 for the first, 0.793 for the second.

First: G5U G68A
Second: G5U C7U
The self-cleavage of the first is higher: 0.886 for the first, 0.0819 for the second.

Compared with G5U C7A, G5U C7G is lower in self-cleavage: 0.086 for the first, 0.0615 for the second.

First: C6A U55C
Second: G5U G19C
The self-cleavage of the first is higher: 0.142 for the first, 0.0535 for the second.

Compared with G5U G19U, C6A C57G is higher in self-cleavage: 0.0974 for the first, 0.22 for the second.

Compared with C6A C57A, C6A C57U is lower in self-cleavage: 0.182 for the first, 0.168 for the second.

First: G5C G48A
Second: C6A C7A
The self-cleavage of the first is higher: 0.217 for the first, 0.143 for the second.

First: C6A G48C
Second: G5C C34G
The self-cleavage of the first is higher: 0.693 for the first, 0.22 for the second.

Compared with G5C C34U, G5C C34A is lower in self-cleavage: 0.3 for the first, 0.268 for the second.

Compared with C6A G47C, C6A G47A is higher in self-cleavage: 0.689 for the first, 0.712 for the second.

Compared with C6A G47U, G5C U64A is lower in self-cleavage: 0.661 for the first, 0.246 for the second.

Compared with G5C U64C, G5C U64G is lower in self-cleavage: 0.262 for the first, 0.105 for the second.

Going from G5U A60C to G5U A60U, the self-cleavage rises from 0.0763 to 0.149.

Compared with G5U A60G, C6A C18G is higher in self-cleavage: 0.0935 for the first, 0.145 for the second.

Going from C6A C18A to C6A C18U, the self-cleavage falls from 0.167 to 0.146.

First: C6A G14A
Second: C6A G14C
The self-cleavage of the first is higher: 0.128 for the first, 0.101 for the second.

Going from C6A G14U to G5C G47U, the self-cleavage rises from 0.116 to 0.289.

Compared with G5C G47C, G5C G47A is lower in self-cleavage: 0.246 for the first, 0.201 for the second.

Going from G5U A10G to G5U A10C, the self-cleavage rises from 0.543 to 0.604.

Compared with G5U A10U, C6A C45U is higher in self-cleavage: 0.581 for the first, 0.708 for the second.

Compared with C6A C45G, G5C G28U is lower in self-cleavage: 0.595 for the first, 0.0856 for the second.

First: G5C G28C
Second: C6A C33U
The self-cleavage of the first is lower: 0.0894 for the first, 0.347 for the second.

First: C6A C33G
Second: C6A A15C
The self-cleavage of the first is lower: 0.108 for the first, 0.235 for the second.

Going from G5C U69G to G5C U69A, the self-cleavage falls from 0.437 to 0.307.

Going from G5U A51G to G5U A51U, the self-cleavage rises from 0.198 to 0.236.

Going from G5U A51C to C6A C32A, the self-cleavage rises from 0.187 to 0.349.

First: C6A C32U
Second: C6A C32G
The self-cleavage of the first is lower: 0.123 for the first, 0.147 for the second.

Compared with G5U A8C, G5U A8G is lower in self-cleavage: 0.346 for the first, 0.228 for the second.

First: G5U C54U
Second: G5U G48U
The self-cleavage of the first is lower: 0.231 for the first, 0.332 for the second.

Going from G5U G48C to G5U C34A, the self-cleavage falls from 0.327 to 0.0978.

Compared with G5U C34G, C6A C24G is higher in self-cleavage: 0.0508 for the first, 0.0842 for the second.

First: C6A C24A
Second: G5U U53G
The self-cleavage of the first is higher: 0.162 for the first, 0.152 for the second.

Compared with G5U C39U, G5U C9U is higher in self-cleavage: 0.101 for the first, 0.877 for the second.

Compared with G5U C9A, G5U U21C is lower in self-cleavage: 0.716 for the first, 0.119 for the second.

Compared with G5U U21A, C6A C35A is lower in self-cleavage: 0.158 for the first, 0.114 for the second.

First: G5C G14U
Second: G5U C32U
The self-cleavage of the first is lower: 0.109 for the first, 0.568 for the second.

Compared with G5U C32G, G5U C32A is higher in self-cleavage: 0.815 for the first, 0.953 for the second.

First: C6A U36C
Second: G5C C29U
The self-cleavage of the first is higher: 0.247 for the first, 0.133 for the second.

First: G5U U43G
Second: C6A C12G
The self-cleavage of the first is lower: 0.161 for the first, 0.26 for the second.

Going from C6A C12A to G5U G31A, the self-cleavage falls from 0.16 to 0.132.

Compared with G5U G31C, G5C U55A is higher in self-cleavage: 0.0656 for the first, 0.192 for the second.

Going from G5C U46A to G5C U46C, the self-cleavage rises from 0.265 to 0.267.

First: G5C C33A
Second: G5C C33G
The self-cleavage of the first is higher: 0.302 for the first, 0.227 for the second.

Going from G5U U44A to G5U U44G, the self-cleavage falls from 0.125 to 0.0852.

Compared with G5U U44C, G5U C45A is higher in self-cleavage: 0.192 for the first, 0.208 for the second.

First: G5U C45U
Second: G5U U26G
The self-cleavage of the first is higher: 0.291 for the first, 0.103 for the second.

Going from G5U U26A to C6A A23C, the self-cleavage rises from 0.132 to 0.519.

Going from C6A A23U to C6A A23G, the self-cleavage falls from 0.749 to 0.511.

Compared with G5U U49C, G5U U49A is higher in self-cleavage: 0.232 for the first, 0.316 for the second.

Going from C6A C27U to C6A C27G, the self-cleavage falls from 0.159 to 0.122.

First: C6A C27A
Second: G5C G56A
The self-cleavage of the first is lower: 0.154 for the first, 0.158 for the second.

Going from G5C G68C to G5C G68A, the self-cleavage rises from 0.317 to 0.473.

Compared with G5C G68U, G5U U20G is lower in self-cleavage: 0.483 for the first, 0.0745 for the second.

Compared with G5U U20A, G5U U20C is higher in self-cleavage: 0.0505 for the first, 0.0958 for the second.

Compared with C6A C63A, C6A G56C is lower in self-cleavage: 0.237 for the first, 0.225 for the second.

First: G5U G30U
Second: G5U G30C
The self-cleavage of the first is higher: 0.0993 for the first, 0.08 for the second.

Going from G5U A13U to G5U A13G, the self-cleavage rises from 0.139 to 0.271.

Variant G5U C18G has a self-cleavage of 0.0898.
